Experimental data: patent publication US7772181B2, “Personal care compositions comprising modified variant Bowman Birk Protease Inhibitors” (Danisco US Inc., priority 2008, dated 2010)

Tests used:
VegF = target: T1, VegF (UniProt P15692); experiment: BioVeris electrochemiluminescence competition binding assay, VEGF; conditions: for IC50: Target protein VEGF, competition assay, concentration reducing BioVeris signal by one half, read-out: BioVeris Binding (apparent IC50); for competition with Anti-VegF antibody for binding to VegF (ECL signal): labeled Anti-VegF antibody, biotinylated VegF
T1 sequence (P15692 207-395): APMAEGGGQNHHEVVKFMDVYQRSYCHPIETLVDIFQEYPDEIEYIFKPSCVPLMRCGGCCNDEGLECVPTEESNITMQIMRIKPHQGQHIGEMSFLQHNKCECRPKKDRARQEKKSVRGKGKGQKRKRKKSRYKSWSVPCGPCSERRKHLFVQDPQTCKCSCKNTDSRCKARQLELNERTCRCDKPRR
Experimental: Briefly, after cleavage, the pH of the cleaved sample was adjusted to 5.5, the sample was then loaded onto the column (equilibrated with 25 mM MES pH 5.5). The free 2BBIck81 was washed through the column using 25 mM sodium acetate pH 5.0 while the BCE103 catalytic core remained bound to the resin. The 2BBIck81 fraction was concentrated by ultrafiltration and analyzed using an electrochemiluminescence (ECL) based binding assay (BioVeris). The Anti-VegF antibody (Santa Cruz) and VegF (PeproTech) were labeled with the electrochemiluminescent dye and biotin, respectively, as described by the manufacturer (BioVeris). All materials were in Dulbecco's PBS (Mediatech) supplemented with 0.1% TWEEN®-80. An initial dilution series of Anti-VegF antibody (125, 250 and 500 ng/ml) and VegF (100, 150, 200 and 250 ng/ml) were tested in the binding assay to determine the concentrations of each that would give a robust ECL signal.
For testing 2BBIck81 binding, 50 μL of 500 ng/ml ECL labeled Anti-VegF antibody, 50 μL of 250 ng/ml biotinylated VegF and 100 μL 2BBIck81 (series of 12.5, 15, 31.25, 62.5, 125, 250 or 500 ng/ml) were incubated at room temperature for 2 h with shaking. Then, 50 μL of 0.2 mg/ml streptavidin coated beads were added and the reaction was incubated at room temperature for 30 minutes. The ECL signal was measured using a BioVeris M8/384 Analyzer as described by the manufacturer (BioVeris).
The resulting vectors were used to transform B. subtilis BG6006 host cells. Cultures were grown in 500 ml of MBD medium and the BBI species were purified essentially as described above and by Vogtentanz et al., 2007 (Protein Expr Purif 55:40-52 [2007]). BioVeris binding assays were performed essentially as outlined in Example 5 and by the manufacturer. Binding of the modified variant BBIs to their respective target proteins was measured using a BioVeris® binding assay, which is a competition assay that determines the binding of the modified variant BBIs to its target protein (e.g. VEGF, FGF5, TGFβ and TNFα) in the presence or absence of a labeled competitor. The competitor can be a labeled monoclonal antibody raised against the target protein or a labeled native receptor of the target protein. The electrochemiluminescent binding assays were performed essentially as described in Example 5. The apparent IC50s were determined from binding data by determining the concentration of the BBI species needed to reduce the BioVeris signal by one half. BBI scaffolds without the target binding peptide in the chymotrypsin inhibitory loop were used as negative controls.

[1] = target: T2, bovine pancreatic trypsin (Bos taurus, UniProt P00760); experiment: Purification process yield of octuple variants (trypsin inhibition); assay type: biochemical
T2 construct: purchased Worthington (Worthington Biochemical Corp.)
T2 sequence (P00760 24-246): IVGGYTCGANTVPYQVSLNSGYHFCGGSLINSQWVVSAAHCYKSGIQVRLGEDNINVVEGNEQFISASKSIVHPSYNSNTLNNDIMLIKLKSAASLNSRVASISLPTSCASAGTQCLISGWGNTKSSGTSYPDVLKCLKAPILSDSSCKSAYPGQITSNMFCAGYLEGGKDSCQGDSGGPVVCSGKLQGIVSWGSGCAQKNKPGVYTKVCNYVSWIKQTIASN
Experimental: The best octuple variants selected in the shake flask screen were tested in the purification process essentially as described above, and including the following changes: 1) after growth, the culture was two fold diluted in glycine buffer (125 mM final concentration and pH adjusted to 9.0) instead of CHES buffer; 2) samples were activated with 2 mM 2-mercaptoethanol only (no sodium sulfite was added; 3) the acid precipitated fusion protein was resuspended in 100 ml of 125 mM glycine (rather than 350 ml of 40 mM glycine); and 4) the pellet collected after the acid/heat treatment was washed with 10 ml water, filtered, and this “washed pellet” filtrate was combined with the original filtrate. The final filtrates were concentrated and trimmed with Glu-BL as described above

[2] = target: T2, bovine pancreatic trypsin; experiment: Trypsin inhibitory assay (BBI activity); assay type: biochemical; conditions: BCE103 fusion protein in cell free broth
Experimental: Trypsin inhibitory assays were performed in Assay Buffer to determine the BBI activity. Specifically, a standard curve was generated by making eleven 1:1 serial dilutions (100 μL BBI+100 μL Assay Buffer) of a 2 μg/mL standard BBI solution. The BBI standard was purified from a 1 mg/ml Trypsin-Chymotrypsin Inhibitor (Sigma Cat. #T-9777) solution in 20 mM MES pH 6.0 using a hydrophobic interaction column (POROS HP2, Phenyl column, Applied Biosystems). The column was equilibrated with 20 mM MES pH 6.0, loaded with 5 mg of the inhibitor, washed with the equilibration buffer, and then the BBI was eluted with water. Unknown BBI samples to be tested in the inhibitory assay were diluted as necessary, so that two or more data points would fall within the standard curve (usually 1:10, 1:100, 1:200, 1:1000, 1:2000 sample dilutions were tested and then the dilutions fine tuned if necessary). […] After the incubation, 100 μL of the 0.5 mg/ml trypsin substrate (diluted in Assay Buffer from a 100 mg/ml solution in DMSO), Suc-AAPR-pNA (succinyl-Ala-Ala-Pro-Arg-para-nitroanilide, Bachem), was added, mixed and the OD (A405) was monitored for 15 min, with 1 time point recorded every 12 sec using a Spectra Max 250 (Molecular Devices). […] The BBI concentration of the unknown samples was calculated from the standard curve. Alternatively, the BBI activity was measured using the same protocol but by determining bovine pancreatic chymotrypsin (Worthington) inhibition (chymotrypsin was used at the same concentration as trypsin and chymotrypsin activity was measured by adding 100 μL of a 0.4 mg/ml chymotrypsin substrate, succinyl-Ala-Ala-Pro-Phe-para-nitroanilide, Bachem).
The relative concentration of active control and modified BBIt-AV's was determined by a trypsin inhibitory assay using purified sBBI as a standard as described above. For some samples, the active BBI concentration was measured by residual trypsin activity according to the method described by Flecker (Flecker, P. FEBS Lett. 252:153-157 [1989]; Vogtentanz et al. supra). […]

B1: BBIt-AV of SEQ ID NO: 640 (protein)
chain: DPDDESSKPCCDQCICTKSNPPQCRCRDARPNACHSACKSCACKYYLYWWCKCTDITDFCYEPCKPSE
modifications: synthetic BBIt-VEGK
B1 gave an IC50 (VegF) of 2 to 10 µM.

B2: BBIt-AV of SEQ ID NO: 641 (protein)
chain: DPDDESSKPCCDQCICTKSNPPQCRCRDARPNACHSACKSCACTLWKSYWCKCTDITDFCYEPCKPSE
modifications: synthetic BBIt-VEGT
B2 was tested, and the IC50 (VegF) was 2 to 10 µM.

B3: BBIt-AV of SEQ ID NO: 642 (protein)
chain: DPDDESSKPCCDQCICTKSNPPQCRCRDARPNACHSACKSCACKYDLYWWCKCTDITDFCYEPCKPSE
modifications: synthetic BBIt-VEGKD
For B3, the IC50 (VegF) was 2 to 10 µM.

B4: BBIt-AV: truncated BBI-AV lacking the 5 C-terminal amino acids, unmodified variant, SEQ ID NO:187 (protein)
chain: DDESSKPCCDQCACTKSNPPQCRCSDMRLNSCHSACKSCACYNLYGWTCFCVDITDFCYEPCKPSE
modifications: synthetic BBIt-AV sequence
For B4, the “binding to VEGF compared with full-length (untruncated) BBI-AV” value (VegF; labeled monoclonal antibody against VEGF as competitor) was “bind better than the full-length molecule”.

B5: QQ8: octuple modified variant BBPI, SEQ ID NO:628 (protein)
chain: DPDDESSKPCCDQCICTKSNPPQCRCKDARRNECHSACKSCKCYNLYGWTCQCQDITDFCYEPCKPSE
modifications: synthetic BBPI variant
With B5 the “purification yield relative to quintuple variant (SEQ ID NO:601)” value [1] was “greater than that of the quintuple modified variant” and the “yield relative to wild-type sBBI” value [1] was “better than the wild-type sBBI”.

B6: RL8: octuple modified variant BBPI, SEQ ID NO:630 (protein)
chain: DPDDESSKPCCDQCICTKSNPPQCRCKDARRNACHSACKSCHCYNLYGWTCRCLDITDFCYEPCKPSE
modifications: synthetic BBPI variant
With B6 the “yield relative to wild-type sBBI” value [1] was “better than the wild-type sBBI”.

B7: KT8: octuple modified variant BBPI, SEQ ID NO:627 (protein)
chain: DPDDESSKPCCDQCICTKSNPPQCRCRDARPNACHSACKSCHCYNLYGWTCKCTDITDFCYEPCKPSE
modifications: synthetic BBPI variant
B7 was tested, and the “purification yield relative to quintuple variant (SEQ ID NO:601)” value [1] was “greater than that of the quintuple modified variant” and the “yield relative to wild-type sBBI” value [1] was “better than the wild-type sBBI”.

B8: BBI-AV: BBI with VEGF binding peptide CK37281 replacing the chymotrypsin inhibitory loop, SEQ ID NO:186 (protein)
chain: DDESSKPCCDQCACTKSNPPQCRCSDMRLNSCHSACKSCACYNLYGWTCFCVDITDFCYEPCKPSEDDKEN
modifications: synthetic BBI-AV sequence
For B8, the “activity of the BBI (trypsin inhibition) relative to fusions to the wild-type BBI” value [2] was “about two fold less”, the “competition for VegF binding compared with synthesized CK37281 peptide” value (VegF) was “better than the synthesized CK37281 peptide itself” and the “competition with Anti-VegF antibody for binding to VegF (ECL signal)” value (VegF) was “shown to compete”. The “competition with Anti-VegF antibody for binding to VegF (ECL signal)” value (VegF; listed as 2BBIck81) was “competed with the Anti-VegF antibody for binding to VegF at micromolar concentrations”.
